Measured values taken from patent publication EP4361176A1 (CHUGAI SEIYAKU KABUSHIKI KAISHA, dated 2024).

Biological target: T1, mCTLA4-His (mouse, UniProt P09793 36-161)
T1 construct: Mouse CTLA4 extracellular region linked with a His-tag; also called mouse CTLA4; Mouse CTLA4
Experiment: SPR Biacore T200, 100 uM ATP

fold weaker binding to mouse CTLA4 than to human CTLA4: ~2 fold
B1: 04H1208-G1m/04L1407-k0MT (antibody, human IgG1, kappa, V domains shown)
VH: EVQLVESGGGLVKPGGSLRLSCAASGFTFSSKTMNWVRQAPGKGLEWVSSISTRSGYIYYARSVKGRFTISRDNAKNSLYLQMNSLRAEDTAVYYCARYGKREDMLWVFDYWGQGTLVTVSS
VL: DIVMTQSPLSLPVTPGEPASISCDGPSTDVGDYNWVHWYQQKPGQAPRLLIYYTSSKPEGVPDRFSGSGSGTDFTLKISRVEAEDVGVYYCQTYAAPLGPTFGQGTKLEIKR
